Source: US20200277374A1 (Alector, published 2020)

Columns and labels:
[1] = target: T1, human Siglec-7 expressed on human cells (primary monocytes, dendritic cells, macrophages, NK cells, … (human, UniProt Q9Y286 19-467)); experiment: FACS, human primary monocytes, 10 ug/ml mAb
T1 construct: Endogenous receptor on cells; also called Siglec-7 receptor
Procedure: (§1) Initial characterization of Siglec-7 antibodies involved determining their ability to bind Siglec-7 expressed on human primary monocytes, human primary macrophages, human primary dendritic cells, human primary neutrophils, and human primary natural killer (NK) cells. Cells were harvested, plated at 10⁶/ml in a 96 well plate, and incubated in 100 ul PBS containing 2% FBS, 2 mM EDTA and 10 μg/ml Mab and Fc blocking reagent for 1 hour in ice. Cells were washed twice and incubated in 100 ul PBS containing 2% FBS, 2 mM EDTA and 5 ug/ml PE-conjugated secondary antibody for 30 minutes on ice. Cells were washed twice in cold PBS and analyze by flow cytometry on a BD FACS Canto. Data analysis and calculation of MFI values was performed with FlowJo (TreeStar) software version 10.0.7.
(§2) Percent positive binding and mean fluorescent intensity (MFI) values for cell types bound by Siglec-7 antibodies are listed in Table 4A. Binding is compared to an isotype control. The antibodies bind to human primary monocytes, human primary dendritic cells, and human primary macrophages. In Table 4A, “Buffer” refers to cells that were treated only with the PBS buffer described supra; “Secondary Ab” refers to cells that were treated only with the PE-conjugated secondary antibody; “mIgG1,” “mIgG2a,” and “mIgG2b” refer to isotype control antibodies; and “RDS7” refers to commerically available anti-Siglec-7 antibody Mab1138 (R&D Systems; Cat. No. MAB 1138).

[2] = target: T1, human Siglec-7 expressed on human cells …; experiment: cell-based or functional assay
[3] = target: T1, human Siglec-7 expressed on human cells …; experiment: FACS, human primary macrophages, 10 ug/ml mAb
Procedure: as §1, §2

[4] = target: T2, Siglec-7-Fc (plate immobilized) (human, UniProt Q9Y286 19-357, limits assumed); experiment: RBC solid adhesion assay, plate-coated Siglec-7-Fc, antibody 0.5 or 1.0 ug/ml; % of RBC binding without antibody
T2 construct: also called Siglec-7-Fc protein; immobilized Siglec-7; not shown: Fc part
Summary of the method: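 Plates coated overnight at RT with 5 μg/ml Siglec-7-Fc and blocked in PBS with BSA and 1 mM CaCl₂. Antibody (0.5 or 1.0 μg/ml) bound 1 h at RT, then RBCs (3.0×10⁶ cells/ml) added for 1 h at RT. Bound RBCs lysed and detected by peroxidase at 450 nm, expressed as % of binding without antibody.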

[5] = target: T3, Histidine-tagged human Siglec-7 (NovoProtein) (human, UniProt Q9Y286 19-357, limits assumed); experiment: SPR (BiaCore T200, 25 C), antibody captured on anti-mouse IgG, Siglec-7-His 35 nM, single-concentration kinetics
T3 construct: Bought protein; also called purified Siglec-7-his tagged protein; not shown: histidine tag
Procedure: SPR data was collected at a rate of 10 Hz at 25′ C on a BiaCore T200 instrument. Data analysis was performed using BiaCore T200 Evaluation Software, version 2.0. HBS-EP+ (100 mM HEPES, 1.5 M NaCl, 30 mM EDTA, 0.5% v/v Surfactant P20, pH 7.4) was used as running buffer and for preparing reagents.
Mouse-derived antibodies (25 nM) against Siglec-7 were captured (60 s contact time, 30 μL/min flow rate, 0 s stabilization time) on a CM5 sensor chip (GE Healthcare) immobilized with anti-mouse IgG. Histidine-tagged human Siglec-7 (NovoProtein) was then flowed over the captured anti-Siglec-7 surface (120 s contact time, 30 μL/min flow rate, 300 s dissociation time). Concentration of antigen ranged from 5 nM to 100 nM, depending on information obtained from an initial screen. Duplicate single-concentration trials were performed and bracketed by a blank (0 nM antigen) sample. The chip surface was regenerated in between cycles using 10 mM glycine-HCl, pH1.7 (60 s contact time, 30 μL/min flow rate, 60 s stabilization time). The resulting SPR signal was obtained as the difference in response from measurements performed on a blank flow cell.
Affinity constants (KD) were calculated from the ratio kd/kₐ. For one antibody (clone 1E8), we validated the single-concentration analysis with a multiple-concentration approach (five concentrations of antigen used, plus one blank).

[6] = target: T1, human Siglec-7 expressed on human cells …; experiment: cell-based or functional assay; remark: listed apart in the source
[7] = target: T1, human Siglec-7 expressed on human cells …; experiment: FACS, human primary dendritic cells, 10 ug/ml mAb
Procedure: as §1, §2

R45A = target: T4, R45A (human, UniProt Q9Y286); experiment: flow cytometry on HEK-293T cells expressing the mutant; mean % of wild-type signal (range of duplicates)
T4 construct: clone of the siglec-7 mutation library; also called Siglec-7 R45A
Procedure: (§3) Shotgun mutagenesis epitope mapping of anti-siglec-7 antibodies was performed using an alanine-scanning library for the siglec-7 protein. […] Each of residues 19 to 353 was mutated, representing the siglec-7 extracellular domain, most to alanine, while alanine codons were mutated to serine. In total, 335 siglec-7 mutant expression constructs were generated, sequences confirmed, and arrayed into a 384-well plate, one mutant per well.
(§4) Cells were then incubated with MAbs diluted in 10% o normal goat serum (NGS) (Sigma-Aldrich, St. Louis, Mo.). Prior to library screening, primary MAb concentrations were determined using an independent immunofluorescence titration curve against cells expressing wild-type siglec-7 to ensure that signals were within the linear range of detection. MAbs were detected using 3.75 μg/ml AlexaFluor488-conjugated secondary antibody (Jackson immunoResearch Laboratories, Westgrove, Pa.) in 10% NGS. Cells were washed twice with PBS−/− and resuspended in Cellstripper (Cellgro, Manassas, Va.) with 0.1% BSA (Sigma-Aldrich, St. Louis, Mo.). Mean cellular fluorescence was detected using the Intellicyt high throughput flow cytometer (HTFC, Intellicyt, Albuquerque, N. Mex.). MAb reactivities against each mutant clone were calculated relative to wild-type siglec-7 protein reactivity by subtracting the signal from mock-transfected controls, and normalizing to the signal from wild-type siglec-7-transfected controls.

R124A = target: T5, R124A (human, UniProt Q9Y286); experiment: as above
T5 construct: clone of the siglec-7 mutation library; also called Siglec-7 R124A
Procedure: as §3, §4

I72A = target: T6, I72A (human, UniProt Q9Y286); experiment: as above
T6 construct: clone of the siglec-7 mutation library; also called Siglec-7 I72A
Procedure: as §3, §4

Q31A = target: T7, Q31A (human, UniProt Q9Y286); experiment: as above
T7 construct: clone of the siglec-7 mutation library; also called Siglec-7 Q31A
Procedure: as §3, §4

N81A = target: T8, N81A (human, UniProt Q9Y286); experiment: as above
T8 construct: clone of the siglec-7 mutation library; also called Siglec-7 N81A
Procedure: as §3, §4

W74A = target: T9, W74A (human, UniProt Q9Y286); experiment: as above
T9 construct: clone of the siglec-7 mutation library; also called Siglec-7 W74A
Procedure: as §3, §4

T107A [8] = target: T10, T107A (human, UniProt Q9Y286); experiment: as above
T10 construct: clone of the siglec-7 mutation library; also called Siglec-7 T107A
Procedure: as §3, §4

S47A = target: T11, S47A (human, UniProt Q9Y286); experiment: as above
T11 construct: clone of the siglec-7 mutation library; also called Siglec-7 S47A
Procedure: as §3, §4

T107A [9] = target: T10, T107A; experiment: flow cytometry on HEK-293T cells expressing the mutant, mock signal subtracted
Procedure: as §3
as §4, with “Cells were washed twice with PBS−/− and resuspended in Cellstripper (Cellgro, Manassas, Va.) with 0.1% BSA (Sigma-Aldrich, St. Louis, Mo.).” left out

F48A (human) = F48A (human) (UniProt Q9Y286); experiment: flow cytometry on HEK-293T cells expressing the mutant; mean % of wild-type signal (range of duplicates)
V44A (human) = V44A (human) (UniProt Q9Y286); experiment: as above
M30A (human) = M30A (human) (UniProt Q9Y286); experiment: as above
Y50A (human) = Y50A (human) (UniProt Q9Y286); experiment: as above
T103A (human) = T103A (human) (UniProt Q9Y286); experiment: as above
T103A (human), sequence (Q9Y286 19-467 T103A limits assumed): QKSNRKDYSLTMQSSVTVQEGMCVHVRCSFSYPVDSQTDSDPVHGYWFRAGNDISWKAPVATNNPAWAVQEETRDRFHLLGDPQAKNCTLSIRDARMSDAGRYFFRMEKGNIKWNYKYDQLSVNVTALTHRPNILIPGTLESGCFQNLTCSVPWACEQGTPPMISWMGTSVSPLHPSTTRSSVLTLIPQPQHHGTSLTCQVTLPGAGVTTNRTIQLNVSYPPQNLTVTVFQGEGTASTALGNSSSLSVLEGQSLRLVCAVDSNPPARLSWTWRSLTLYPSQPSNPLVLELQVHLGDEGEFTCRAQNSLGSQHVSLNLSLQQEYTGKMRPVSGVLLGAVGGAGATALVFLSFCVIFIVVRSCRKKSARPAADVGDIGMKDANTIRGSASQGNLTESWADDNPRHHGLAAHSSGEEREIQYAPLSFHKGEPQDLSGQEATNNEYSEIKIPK

T1 sequence (Q9Y286 19-467): as the sequence (Q9Y286 19-467 T103A limits assumed) above, with A85T counted along it
T10 sequence (Q9Y286 19-467 T107A limits assumed): as the sequence (Q9Y286 19-467 T103A limits assumed) above, with A85T, T89A counted along it
T2 sequence (Q9Y286 19-357 limits assumed): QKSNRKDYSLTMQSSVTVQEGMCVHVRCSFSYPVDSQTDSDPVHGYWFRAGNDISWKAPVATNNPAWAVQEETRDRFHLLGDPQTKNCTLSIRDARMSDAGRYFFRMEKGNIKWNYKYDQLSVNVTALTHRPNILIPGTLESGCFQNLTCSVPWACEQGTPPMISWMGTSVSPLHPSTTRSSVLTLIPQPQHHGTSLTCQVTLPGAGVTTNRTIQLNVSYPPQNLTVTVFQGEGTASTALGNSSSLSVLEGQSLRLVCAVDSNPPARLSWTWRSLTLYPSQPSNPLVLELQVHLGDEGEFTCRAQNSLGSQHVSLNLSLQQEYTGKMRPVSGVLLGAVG
T3 sequence (Q9Y286 19-357 limits assumed): as above
M30A (human), sequence (Q9Y286 19-467 M30A limits assumed): as the sequence (Q9Y286 19-467 T103A limits assumed) above, with M12A, A85T counted along it
T8 sequence (Q9Y286 19-467 N81A limits assumed): as the sequence (Q9Y286 19-467 T103A limits assumed) above, with N63A, A85T counted along it
F48A (human), sequence (Q9Y286 19-467 F48A limits assumed): as the sequence (Q9Y286 19-467 T103A limits assumed) above, with F30A, A85T counted along it
T7 sequence (Q9Y286 19-467 Q31A limits assumed): as the sequence (Q9Y286 19-467 T103A limits assumed) above, with Q13A, A85T counted along it
V44A (human), sequence (Q9Y286 19-467 V44A limits assumed): as the sequence (Q9Y286 19-467 T103A limits assumed) above, with V26A, A85T counted along it
T11 sequence (Q9Y286 19-467 S47A limits assumed): as the sequence (Q9Y286 19-467 T103A limits assumed) above, with S29A, A85T counted along it
T6 sequence (Q9Y286 19-467 I72A limits assumed): as the sequence (Q9Y286 19-467 T103A limits assumed) above, with I54A, A85T counted along it
T9 sequence (Q9Y286 19-467 W74A limits assumed): as the sequence (Q9Y286 19-467 T103A limits assumed) above, with W56A, A85T counted along it
T4 sequence (Q9Y286 19-467 R45A limits assumed): as the sequence (Q9Y286 19-467 T103A limits assumed) above, with R27A, A85T counted along it
T5 sequence (Q9Y286 19-467 R124A limits assumed): as the sequence (Q9Y286 19-467 T103A limits assumed) above, with A85T, R106A counted along it
Y50A (human), sequence (Q9Y286 19-467 Y50A limits assumed): as the sequence (Q9Y286 19-467 T103A limits assumed) above, with Y32A, A85T counted along it

Row | Binder | % Positive [1] [%] | MFI [1] | Percent Siglec-7 Surface Expression, Macrophages [2] [%] | Percent Siglec-7 Surface Expression, Microglia [2] [%] | Percent Siglec-7 Surface Expression, NK cells [2] [%] | % Positive [3] [%] | MFI [3] | Percent RBC Binding to Siglec-7 [4] [%] | Kd [5] [nM] | Percent Siglec-7 Surface Expression, DCs [6] [%] | Percent Siglec-7 Surface Expression, Monocytes [6] [%] | Percent Siglec-7 Surface Expression, U937 cells [6] [%] | % Positive [7] [%] | MFI [7] | other results
1 | anti-Siglec-7 antibody 4A1 (antibody, V domains shown, Variable domains assembled from FR and CDR entries) VH: QVQLQQSGSELRSPGSSVKLSCKDFDSEVFPITYMNWVRQKPGHGFEWIGDILPSIGRTMYGEKFEDKATLDADTVSNTAYLELNSLTSEDSAIYYCARSEGYLLAYWGQGTLVTVSA VL: DVVMTQTPLSLPVSLGDQASISCRSSQSLVHSTGNIYLHWYLQKPGQSPKLLIYKVSNRFZGVPDRFSGSGSGTDFTLKISRVEAEDLGVYFCSQNTHVPYTFGGGTKLEIK | 99.4 | 486 | 13.1 | 26.3 | 132 | 99.3 | 14600 | 11.2 | 0.3 | 99.6 | 39.8 | 89.5 | 99.7 | 5450 | –
2 | anti-Siglec-7 antibody 7F12 (antibody, V domains shown, Variable domains assembled from FR and CDR entries) VH: QVQLQQSGSELRSPGSSVKLSCKDFDSEVFPITYMNWVRQKPGHGFEWIGDILPSIGRTMYGEKFEDKATLDADTVSNTAYLELNSLTSEDSAIYYCARSEGYLLAYWGQGTLVTVSA VL: DVLMTQTPLSLPVSLGDQASISCRSSQSLVHSTGNTYLHWYLQKPGQSPKLLIYKVSNRFSGVPDRFSGSGAGTDFTLKISRVEAEDLGVYFCSQNTHVPYTFGGGTKLEIK | 99.3 | 472 | 13.1 | 28.1 | 124 | 99.3 | 12300 | 7.9 | 0.4 | 96.9 | 39 | 86.3 | 99.7 | 5000 | –
3 | 10B5 Fab (Fab, V domains shown) VH: QVHLQQSGPELVKPGASVKISCKASGYAFTNCWMNWVRQRPGKGLDWIGRIFPGNGHTNYSGKFKDKATLTEDKSSSTAYMQLSSLTSEDSAVYFCARDYSDYYFDYWGQGTTLTVSS VL: DVQMTQTTSSLSASLGDRVTISCRASQDINTYLNWYQQKPDGTVKLLIYYTSRLHSGVPSRFSGSGSGTDYSLTISNLEQEDIATYFCQQGNTLPWTFGGGTKLEIK | – | – | – | – | – | – | – | – | – | – | – | – | – | – | Binding Reactivity (% WT) (R45A): 1.6 % WT; Binding Reactivity (% WT) (R124A): 81.1 % WT; Binding Reactivity (% WT) (I72A): 92.8 % WT; Binding Reactivity (% WT) (Q31A): 18.2 % WT; Binding Reactivity (% WT) (N81A): 138 % WT; Binding Reactivity (% WT) (W74A): 79.8 % WT; Binding Reactivity (% WT) (T107A [8]): 0.4 % WT; Binding Reactivity (% WT) (S47A): 1.5 % WT; binding result (T107A [9]): no binding; Binding Reactivity (% WT) (F48A (human)): 13.9 % WT; Binding Reactivity (% WT) (V44A (human)): 13.3 % WT; Binding Reactivity (% WT) (M30A (human)): 20.1 % WT; Binding Reactivity (% WT) (Y50A (human)): 18.2 % WT; Binding Reactivity (% WT) (T103A (human)): 6.3 % WT
